Test results as given in US20140193378A1 (UNIVERSITY OF MIAMI, published 2014).
Non-standard residues stand in square brackets, D forms with d. No end group written: not given here. *: point of attachment. Phe(F5) = N[C@@H](Cc1c(F)c(F)c(F)c(F)c1F)C(=O)O; Desaminotyrosyl = O=C(CCc1ccc(O)cc1)*; NMeY = CN[C@@H](Cc1ccc(O)cc1)C(=O)O; Agmatine = N=C(N)NCCCCN*; NMeA = CN[C@@H](C)C(=O)O; Nle = CCCC[C@H](N)C(=O)O; Orn = NCCC[C@H](N)C(=O)O; Abu = CC[C@H](N)C(=O)O; Ava = NCCCCC(=O)O; GABA = NCCCC(=O)O

T1: human GHRH receptor (human pituitary membrane homogenates) (human, UniProt Q02643 23-423)
T1 construct: whole, on cells; Native receptor in human pituitary membrane homogenates, not on intact cells; also called hGHRH receptor
T1 sequence (looked up): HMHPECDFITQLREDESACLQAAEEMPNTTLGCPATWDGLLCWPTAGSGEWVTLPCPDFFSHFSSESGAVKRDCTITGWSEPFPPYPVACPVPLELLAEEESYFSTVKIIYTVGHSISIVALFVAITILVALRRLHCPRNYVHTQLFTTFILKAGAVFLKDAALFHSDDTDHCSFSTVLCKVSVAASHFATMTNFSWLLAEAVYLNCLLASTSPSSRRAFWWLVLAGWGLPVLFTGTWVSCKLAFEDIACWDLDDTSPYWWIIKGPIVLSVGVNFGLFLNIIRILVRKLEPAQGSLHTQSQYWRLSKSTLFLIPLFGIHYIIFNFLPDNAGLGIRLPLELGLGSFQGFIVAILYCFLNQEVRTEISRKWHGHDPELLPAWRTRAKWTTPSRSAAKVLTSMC

B1: P-20357 [Dat^1, D-Ala^2, N-Me-Ala^8, Orn^12, Abu^15, Orn^21, Nle^27, Asp^28, Agm^29]hGHRH(1-29)NH2 (peptide)
peptide: [Desaminotyrosyl][dA]DAIFT[NMeA]SYR[Orn]VL[Abu]QLSAR[Orn]LLQDI[Nle]D[Agmatine]
SMILES: CCCC[C@H](NC(=O)[C@@H](NC(=O)[C@H](CC(=O)O)NC(=O)[C@H](CCC(N)=O)NC(=O)[C@H](CC(C)C)NC(=O)[C@H](CC(C)C)NC(=O)[C@H](CCCN)NC(=O)[C@H](CCCNC(=N)N)NC(=O)[C@H](C)NC(=O)[C@H](CO)NC(=O)[C@H](CC(C)C)NC(=O)[C@H](CCC(N)=O)NC(=O)[C@H](CC)NC(=O)[C@H](CC(C)C)NC(=O)[C@@H](NC(=O)[C@H](CCCN)NC(=O)[C@H](CCCNC(=N)N)NC(=O)[C@H](Cc1ccc(O)cc1)NC(=O)[C@H](CO)NC(=O)[C@H](C)N(C)C(=O)[C@@H](NC(=O)[C@H](Cc1ccccc1)NC(=O)[C@@H](NC(=O)[C@H](C)NC(=O)[C@H](CC(=O)O)NC(=O)[C@@H](C)NC(=O)CCc1ccc(O)cc1)[C@@H](C)CC)[C@@H](C)O)C(C)C)[C@@H](C)CC)C(=O)N[C@@H](CC(=O)O)C(=O)NCCCCNC(=N)N
notes: also called Peptide 20357
B2: P-27400 [Dat^1, D-Ala^2, Orn^12, Abu^15, Orn^21, Nle^27, Asp^28]hGHRH(1-29)NH-CH3 (peptide)
peptide: [Desaminotyrosyl][dA]DAIFTNSYR[Orn]VL[Abu]QLSAR[Orn]LLQDI[Nle]DR-NHMe
SMILES: CCCC[C@H](NC(=O)[C@@H](NC(=O)[C@H](CC(=O)O)NC(=O)[C@H](CCC(N)=O)NC(=O)[C@H](CC(C)C)NC(=O)[C@H](CC(C)C)NC(=O)[C@H](CCCN)NC(=O)[C@H](CCCNC(=N)N)NC(=O)[C@H](C)NC(=O)[C@H](CO)NC(=O)[C@H](CC(C)C)NC(=O)[C@H](CCC(N)=O)NC(=O)[C@H](CC)NC(=O)[C@H](CC(C)C)NC(=O)[C@@H](NC(=O)[C@H](CCCN)NC(=O)[C@H](CCCNC(=N)N)NC(=O)[C@H](Cc1ccc(O)cc1)NC(=O)[C@H](CO)NC(=O)[C@H](CC(N)=O)NC(=O)[C@@H](NC(=O)[C@H](Cc1ccccc1)NC(=O)[C@@H](NC(=O)[C@H](C)NC(=O)[C@H](CC(=O)O)NC(=O)[C@@H](C)NC(=O)CCc1ccc(O)cc1)[C@@H](C)CC)[C@@H](C)O)C(C)C)[C@@H](C)CC)C(=O)N[C@@H](CC(=O)O)C(=O)N[C@@H](CCCNC(=N)N)C(=O)NC
B3: P-22326 [N-Me-Tyr^1, D-Ala^2, Gln^8, Orn^12, Abu^15, Orn^21, Nle^27, Asp^28, Apa^30]hGHRH(1-30)NH2 (peptide)
peptide: [NMeY][dA]DAIFTQSYR[Orn]VL[Abu]QLSAR[Orn]LLQDI[Nle]DR[Ava]-NH2
modifications: N-terminus assumed
SMILES: CCCC[C@H](NC(=O)[C@@H](NC(=O)[C@H](CC(=O)O)NC(=O)[C@H](CCC(N)=O)NC(=O)[C@H](CC(C)C)NC(=O)[C@H](CC(C)C)NC(=O)[C@H](CCCN)NC(=O)[C@H](CCCNC(=N)N)NC(=O)[C@H](C)NC(=O)[C@H](CO)NC(=O)[C@H](CC(C)C)NC(=O)[C@H](CCC(N)=O)NC(=O)[C@H](CC)NC(=O)[C@H](CC(C)C)NC(=O)[C@@H](NC(=O)[C@H](CCCN)NC(=O)[C@H](CCCNC(=N)N)NC(=O)[C@H](Cc1ccc(O)cc1)NC(=O)[C@H](CO)NC(=O)[C@H](CCC(N)=O)NC(=O)[C@@H](NC(=O)[C@H](Cc1ccccc1)NC(=O)[C@@H](NC(=O)[C@H](C)NC(=O)[C@H](CC(=O)O)NC(=O)[C@@H](C)NC(=O)[C@H](Cc1ccc(O)cc1)NC)[C@@H](C)CC)[C@@H](C)O)C(C)C)[C@@H](C)CC)C(=O)N[C@@H](CC(=O)O)C(=O)N[C@@H](CCCNC(=N)N)C(=O)NCCCCC(N)=O
notes: also called Peptide 22326
B4: P-25501 [N-Me-Tyr^1, D-Ala^2, Orn^12, Abu^15, Orn^21, Nle^27, Gab^30]hGHRH(1-30)NH2 (peptide)
peptide: [NMeY][dA]DAIFTNSYR[Orn]VL[Abu]QLSAR[Orn]LLQDI[Nle]SR[GABA]-NH2
modifications: N-terminus assumed
SMILES: CCCC[C@H](NC(=O)[C@@H](NC(=O)[C@H](CC(=O)O)NC(=O)[C@H](CCC(N)=O)NC(=O)[C@H](CC(C)C)NC(=O)[C@H](CC(C)C)NC(=O)[C@H](CCCN)NC(=O)[C@H](CCCNC(=N)N)NC(=O)[C@H](C)NC(=O)[C@H](CO)NC(=O)[C@H](CC(C)C)NC(=O)[C@H](CCC(N)=O)NC(=O)[C@H](CC)NC(=O)[C@H](CC(C)C)NC(=O)[C@@H](NC(=O)[C@H](CCCN)NC(=O)[C@H](CCCNC(=N)N)NC(=O)[C@H](Cc1ccc(O)cc1)NC(=O)[C@H](CO)NC(=O)[C@H](CC(N)=O)NC(=O)[C@@H](NC(=O)[C@H](Cc1ccccc1)NC(=O)[C@@H](NC(=O)[C@H](C)NC(=O)[C@H](CC(=O)O)NC(=O)[C@@H](C)NC(=O)[C@H](Cc1ccc(O)cc1)NC)[C@@H](C)CC)[C@@H](C)O)C(C)C)[C@@H](C)CC)C(=O)N[C@@H](CO)C(=O)N[C@@H](CCCNC(=N)N)C(=O)NCCCC(N)=O
notes: also called Peptide 25501
B5: P-27408 [Dat^1, D-Ala^2, Gln^8, Orn^12, Abu^15, Orn^21, Nle^27, Asp^28]hGHRH(1-29)NH-CH3 (peptide)
peptide: [Desaminotyrosyl][dA]DAIFTQSYR[Orn]VL[Abu]QLSAR[Orn]LLQDI[Nle]DR-NHMe
SMILES: CCCC[C@H](NC(=O)[C@@H](NC(=O)[C@H](CC(=O)O)NC(=O)[C@H](CCC(N)=O)NC(=O)[C@H](CC(C)C)NC(=O)[C@H](CC(C)C)NC(=O)[C@H](CCCN)NC(=O)[C@H](CCCNC(=N)N)NC(=O)[C@H](C)NC(=O)[C@H](CO)NC(=O)[C@H](CC(C)C)NC(=O)[C@H](CCC(N)=O)NC(=O)[C@H](CC)NC(=O)[C@H](CC(C)C)NC(=O)[C@@H](NC(=O)[C@H](CCCN)NC(=O)[C@H](CCCNC(=N)N)NC(=O)[C@H](Cc1ccc(O)cc1)NC(=O)[C@H](CO)NC(=O)[C@H](CCC(N)=O)NC(=O)[C@@H](NC(=O)[C@H](Cc1ccccc1)NC(=O)[C@@H](NC(=O)[C@H](C)NC(=O)[C@H](CC(=O)O)NC(=O)[C@@H](C)NC(=O)CCc1ccc(O)cc1)[C@@H](C)CC)[C@@H](C)O)C(C)C)[C@@H](C)CC)C(=O)N[C@@H](CC(=O)O)C(=O)N[C@@H](CCCNC(=N)N)C(=O)NC
notes: also called Peptide 27408
B6: P-27401 [Dat^1, D-Ala^2, Gln^8, Orn^12, Abu^15, Orn^21, Nle^27, Asp^28, D-Arg^29]hGHRH(1-29)NH-CH3 (peptide)
peptide: [Desaminotyrosyl][dA]DAIFTQSYR[Orn]VL[Abu]QLSAR[Orn]LLQDI[Nle]D[dR]-NHMe
SMILES: CCCC[C@H](NC(=O)[C@@H](NC(=O)[C@H](CC(=O)O)NC(=O)[C@H](CCC(N)=O)NC(=O)[C@H](CC(C)C)NC(=O)[C@H](CC(C)C)NC(=O)[C@H](CCCN)NC(=O)[C@H](CCCNC(=N)N)NC(=O)[C@H](C)NC(=O)[C@H](CO)NC(=O)[C@H](CC(C)C)NC(=O)[C@H](CCC(N)=O)NC(=O)[C@H](CC)NC(=O)[C@H](CC(C)C)NC(=O)[C@@H](NC(=O)[C@H](CCCN)NC(=O)[C@H](CCCNC(=N)N)NC(=O)[C@H](Cc1ccc(O)cc1)NC(=O)[C@H](CO)NC(=O)[C@H](CCC(N)=O)NC(=O)[C@@H](NC(=O)[C@H](Cc1ccccc1)NC(=O)[C@@H](NC(=O)[C@H](C)NC(=O)[C@H](CC(=O)O)NC(=O)[C@@H](C)NC(=O)CCc1ccc(O)cc1)[C@@H](C)CC)[C@@H](C)O)C(C)C)[C@@H](C)CC)C(=O)N[C@@H](CC(=O)O)C(=O)N[C@H](CCCNC(=N)N)C(=O)NC

The binders below were run against T1, human GHRH receptor (human pituitary …) (assay: radioligand competition vs 125I-JV-1-42 (0.2 nM), human pituitary membranes).
Text: Normal human pituitaries were purchased from the National Hormone and Peptide Program (A. F. Parlow, Los Angeles, County Harbor-UCLA Medical Center, Torrance, Calif.).

| Binder | Relative affinity (Binding potency) vs JI-38 |
| --- | --- |
| [NMeY][dA]DAIFTQSYR[Orn]VL[Abu]QLSAR[Orn]LLQDI[Nle]DR-NHEt (also called Peptide 28420) [P-28420 [N-Me-Tyr^1, D-Ala^2, Gln^8, Orn^12, Abu^15, Orn^21, Nle^27, Asp^28]hGHRH(1-29)NH-CH2-CH3] | 8.37 fold |
| B1 | 5.06 fold |
| [NMeY][dA]DAIFTNSYR[Orn]VL[Abu]QLSAR[Orn]LLQDI[Nle]DR-NHMe (also called Peptide 27409; MR-409) [P-27409 [N-Me-Tyr^1, D-Ala^2, Orn^12, Abu^15, Orn^21, Nle^27, Asp^28]hGHRH(1-29)NH-CH3] | 4.1 fold |
| [NMeY][dA]DAIFTTSYR[Orn]VL[Abu]QLSAR[Orn]LLQDI[Nle]DR-NHMe (also called Peptide 27410) [P-27410 [N-Me-Tyr^1, D-Ala^2, Thr^8, Orn^12, Abu^15, Orn^21, Nle^27, Asp^28]hGHRH(1-29)NH-CH3] | 5.24 fold |
| B2 | 1.3 fold |
| [NMeY][dA]DAIFTNSYR[Orn]VL[Abu]QLSAR[Orn]LLQDI[Nle]DR-NHEt (also called Peptide 28421) [P-28421 [N-Me-Tyr^1, D-Ala^2, Orn^12, Abu^15, Orn^21, Nle^27, Asp^28]hGHRH(1-29)NH-CH2-CH3] | 2.96 fold |
| [NMeY][dA]DAI[Phe(F5)]TNSYR[Orn]VL[Abu]QLSAR[Orn]LLQDI[Nle]DR-NHMe [P-27404 [N-Me-Tyr^1, D-Ala^2, Fpa5^6, Orn^12, Abu^15, Orn^21, Nle^27, Asp^28]hGHRH(1-29)NH-CH3] | 5 fold |
| [NMeY][dA]DAI[Phe(F5)]TNSYR[Orn]VL[Abu]QLSAR[Orn]LLQDI[Nle]D[Agmatine] (also called Peptide 20359) [P-20359 [N-Me-Tyr^1, D-Ala^2, Fpa5^6, Orn^12, Abu^15, Orn^21, Nle^27, Asp^28, Agm^29]hGHRH(1-29)NH2] | 1.43 fold |
| [NMeY][dA]DAIFTNSYR[Orn]VL[Abu]QLSAR[Orn]LLQDI[Nle]D[Agmatine] (also called Peptide 20367) [P-20367 [N-Me-Tyr^1, D-Ala^2, Orn^12, Abu^15, Orn^21, Nle^27, Asp^28, Agm^29]hGHRH(1-29)NH2] | 2.56 fold |
| B3 | 6.12 fold |
| [NMeY][dA]DAI[Phe(F5)]TNSYR[Orn]VL[Abu]QLSAR[Orn]LLQDI[Nle]SR[GABA]-NHMe (also called Peptide 27414) [P-27414 [N-Me-Tyr^1, D-Ala^2, Fpa5^6, Orn^12, Abu^15, Orn^21, Nle^27, Gab^30]hGHRH(1-30)NH-CH3] | 2.79 fold |
| B4 | 4.07 fold |
| [NMeY][dA]DAIFTQSYR[Orn]VL[Abu]QLSAR[Orn]LLQDI[Nle]DR-NHMe [P-27403 [N-Me-Tyr^1, D-Ala^2, Gln^8, Orn^12, Abu^15, Orn^21, Nle^27, Asp^28]hGHRH(1-29)NH-CH3] | 27.2 fold |
| B5 | 7.91 fold |
| B6 | 1.59 fold |
